Measurements as given in publication PMC11371828 (Nature Communications, 2024).
Positions count from the first letter of the chain named.

Legend:
[1] = biological target: T1, 6xHis-IKKβ(1-669) EE K480E (human, UniProt O14920 1-669, S177E | S181E | K480E); test: pull-down
T1 sequence (looked up): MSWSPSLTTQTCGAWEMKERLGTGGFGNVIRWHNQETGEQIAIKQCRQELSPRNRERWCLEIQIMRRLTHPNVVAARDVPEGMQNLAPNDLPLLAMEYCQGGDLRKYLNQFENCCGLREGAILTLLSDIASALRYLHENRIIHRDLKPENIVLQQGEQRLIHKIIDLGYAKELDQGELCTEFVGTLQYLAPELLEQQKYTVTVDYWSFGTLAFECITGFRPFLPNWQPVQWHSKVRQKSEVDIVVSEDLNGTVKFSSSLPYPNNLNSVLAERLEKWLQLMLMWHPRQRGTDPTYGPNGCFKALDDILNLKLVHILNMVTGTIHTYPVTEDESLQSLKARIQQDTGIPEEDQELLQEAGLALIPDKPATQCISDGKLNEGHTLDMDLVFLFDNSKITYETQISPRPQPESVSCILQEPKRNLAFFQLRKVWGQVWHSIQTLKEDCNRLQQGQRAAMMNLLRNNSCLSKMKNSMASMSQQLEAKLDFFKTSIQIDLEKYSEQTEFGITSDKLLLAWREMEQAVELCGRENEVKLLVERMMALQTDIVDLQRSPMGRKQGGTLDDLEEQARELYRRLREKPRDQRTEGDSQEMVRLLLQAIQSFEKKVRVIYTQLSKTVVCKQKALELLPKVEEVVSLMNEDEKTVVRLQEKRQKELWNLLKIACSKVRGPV

[2] = biological target: T2, 6xHis-IKKβ(1-669) EE (human, UniProt O14920 1-669, S177E | S181E); test: pull-down
T2 sequence (looked up): T1 sequence (looked up) with E480K

- binding result [1]: binds
- binding result [2]: binds
Binder: DELPYDDCVFGGQRLTL (peptide, UniProt P25963 301-317, looked up) [MBP-IκBα pep(s)]
